Data: patent US20260193376A1 (Novo Nordisk, published 2026)

These binders were tested against human plasma-derived Factor IXa (human, UniProt P00740 47-191; P00740 227-461) (assay: cell-based or functional assay).
human plasma-derived Factor IXa, sequence (P00740 47-191, chain 1 of 2): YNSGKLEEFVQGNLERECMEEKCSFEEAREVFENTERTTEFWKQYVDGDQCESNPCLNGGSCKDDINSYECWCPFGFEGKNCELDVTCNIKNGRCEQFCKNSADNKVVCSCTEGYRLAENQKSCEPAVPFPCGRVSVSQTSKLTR
human plasma-derived Factor IXa, sequence (P00740 227-461, chain 2 of 2): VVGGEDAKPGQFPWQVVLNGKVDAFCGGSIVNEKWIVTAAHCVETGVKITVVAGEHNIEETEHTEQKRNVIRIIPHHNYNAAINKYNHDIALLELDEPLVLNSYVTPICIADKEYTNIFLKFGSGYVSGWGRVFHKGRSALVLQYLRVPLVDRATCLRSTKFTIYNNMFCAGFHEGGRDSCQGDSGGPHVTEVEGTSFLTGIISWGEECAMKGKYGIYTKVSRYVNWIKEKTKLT

Binder	Stimulation Index, FXa generation assay, 800 nM OA antibody [fold]	Stimulation Index, FXa generation assay, 1600 nM OA antibody [fold]	Stimulation Index, FXa generation assay, 3200 nM OA antibody [fold]
one-armed (OA) mAb11-1276 (antibody, V domains shown) VH: EVQLVESGGGLVQPGRSLRLSCAASGFTFHDYAMHWVRQVPGKGLEWVSGISWKGDIGGYVDSVKGRFTISRDNEKNSLYLQMNSLRAEDTALYYCVKSYGSGSFYNAFDSWGQGTLVTVSS VL: DIQMTQSPSTLSASVGDRVTITCRASQSISSWLAWYQQKPGKAPKFLIYKASRLDRGTPSRFSGSGSGTEFSLTISSLSPDDFATYYCLEYSSYIRTFGQGTKVEIK	1740	–	–
one-armed (OA) mAb11-1288 (antibody, V domains shown) VH: EVQLVESGGGLVQPGRSLRLSCAASGFTFHDYAMHWVRQVPGKGLEWVSGISWKGDIGGYVDSVKGRFTISRDNEKNSLYLQMNSLRAEDTALYYCVKSYGSGSFYNAFDSWGQGTLVTVSS VL: DIQMTQSPSTLSASVGDRVTITCRASQSISSWLAWYQQKPGKAPKFLIYKASRLDRGTPQRFSGSGSGTEFSLTIYSLQPDDFATYYCLEYNSYIRTFGQGTKVEIK	2530	–	–
one-armed (OA) mAb11-1286 (antibody, V domains shown) VH: EVQLVESGGGLVQPGRSLRLSCAASGFTFHDYAMHWVRQVPGKGLEWVSGISWKGDIGGYVDSVKGRFTISRDNEKNSLYLQMNSLRAEDTALYYCVKSYGSGSFYNAFDSWGQGTLVTVSS VL: DIQMTQSPSTLSASVGDRVTITCRASQSISSWLAWYQQKPGKAPKFLIYKASRLDRGTPSRFSGSGSGTEFSLTIYDLQPDDFATYYCLEYRSYIRTFGQGTKVEIK	1820	–	–
one-armed (OA) mAb11-1344 (antibody, V domains shown) VH: EVQLVESGGGLVQPGRSLKLSCAASGFTFDDYAMHWVRQVPGKGLEWVSGISWKGDIGGYVDSVKGRFTISRDNAKNSLYLQLNSLRAEDTALYYCAKSYGSGSFYNAFDSWGQGTLVTVSS VL: DIQMTQSPSTLSASAGDRVTITCRASQSISSWLAWYQQKPGKAPKFLIYKASKLDRGTPSRFSGSGSGTEFSLTISSLQPDDFATYYCLEYSSYIRTFGQGTKVEIK	4660	–	–
one-armed (OA) mAb11-1358 (antibody, V domains shown) VH: EVQLVESGGGLVQPGRSLKLSCAASGFTFDDYAMHWVRQVPGKGLEWVSGISWRGDIGGYVDSVKGRFTISRDNAKNSLYLQLNSLRAEDTALYYCVKSYGSGSFYNAFDSWGQGTLVTVSS VL: DIQMTQSPSTLSASAGDRVTITCRASQSISSWLAWYQQKPGKAPKFLIYKASKLDRGTPSRFSGSGSGTEFSLTISSLQPDDFATYYCLEYSSYIRTFGQGTKVEIK	2830	–	–
one-armed (OA) mAb11-1282 (antibody, V domains shown) VH: EVQLVESGGGLVQPGRSLRLSCAASGFTFHDYAMHWVRQVPGKGLEWVSGISWKGDIGGYVDSVKGRFTISRDNEKNSLYLQMNSLRAEDTALYYCVKSYGSGSFYNAFDSWGQGTLVTVSS VL: DIQMTQSPSTLSASVGDRVTITCRASQSISSWLAWYQQKPGKAPKFLIYKASRLDRGTPSRFSGSGSGTEFSLTISSLQPDDFATYYCLEYSSWIRTFGQGTKVEIK	1460	–	–
one-armed (OA) mAb11-1278 (antibody, V domains shown) VH: EVQLVESGGGLVQPGRSLRLSCAASGFTFHDYAMHWVRQVPGKGLEWVSGISWKGDIGGYVDSVKGRFTISRDNEKNSLYLQMNSLRAEDTALYYCVKSYGSGSFYNAFDSWGQGTLVTVSS VL: DIQMTQSPSTLSASVGDRVTITCRASQSISSWLAWYQQKPGKAPKFLIYKASRLDRGTPSRFSGSGSGTEFSLTISSLQPDDFATYYCLEYQSYIRTFGQGTKVEIK	1690	–	–
one-armed (OA) mAb01-9697 (antibody, V domains shown) VH: EVQLVESGGGLVQPGRSLKLSCAASGFTFDDYAMHWVRQVPGKGLEWVSGISWRGDIGGYVDSVKGRFTISRDNAKNSLYLQLNSLRAEDTALYYCVKSYGSGSFYNAFDSWGQGTLVTVSS VL: DIQMTQSPSTLSASVGDRVTITCRASQSISSWLAWYQQKPGKAPKFLIYKASRLERGTPSRFSGSGSGTEFSLTISSLQPDDFATYYCLEYSSYIRTFGQGTKVEIK	–	–	6540
one-armed (OA) mAb11-1279 (antibody, V domains shown) VH: EVQLVESGGGLVQPGRSLRLSCAASGFTFHDYAMHWVRQVPGKGLEWVSGISWKGDIGGYVDSVKGRFTISRDNEKNSLYLQMNSLRAEDTALYYCVKSYGSGSFYNAFDSWGQGTLVTVSS VL: DIQMTQSPSTLSASVGDRVTITCRASQSISSWLAWYQQKPGKAPKFLIYKASRLDRGTPSRFSGSGSGTEFSLTISSLQPDDFATYYCLEYKSYIRTFGQGTKVEIK	1560	–	–

Results, then the binder that gave them:

Stimulation Index, FXa generation assay, 800 nM OA antibody [fold]	Stimulation Index, FXa generation assay, 1600 nM OA antibody [fold]	Stimulation Index, FXa generation assay, 3200 nM OA antibody [fold]	Binder
–	5850	–	one-armed (OA) mAb11-1502 (antibody, V domains shown) VH: EVQLVESGGGLVQPGRSLRLSCAASGFTFDDYAMHWVRQVPGKGLEWVSGISWRGDIGGYVKSVKGRFTISRDNAKNSLYLQMNSLRAEDTALYYCVKSYGSGSFYNAFDSWGQGTLVTVSS VL: DIQMTQSPSTLSASVGDRVTITCRASQSISSWLAWYQQKPGKAPKLLIYKASKLDRGTPSRFSGSGSGTEFTLTISSLQPDDFATYYCLEYSSYIRTFGQGTKVEIK
–	10300	–	one-armed (OA) mAb11-1501 (antibody, V domains shown) VH: EVQLVESGGGLVQPGRSLRLSCAASGFTFDDYAMHWVRQVPGKGLEWVSGISWRGDIGGYVKSVKGRFTISRDNAKNSLYLQMNSLRAEDTALYYCVKSYGSGSFYNAFDSWGQGTLVTVSS VL: DIQMTQSPSTLSASVGDRVTITCRASQSISSWLAWYQQKPGKAPKFLIYKASKLDRGTPSRFSGSGSGTEFTLTISSLQPDDFATYYCLEYSSYIRTFGQGTKVEIK
–	7690	–	one-armed (OA) mAb11-1495 (antibody, V domains shown) VH: EVQLVESGGGLVQPGRSLRLSCAASGFTFHDYAMHWVRQVPGKGLEWVSGISWRGDIGGYAKSVKGRFTISRDNAKNSLYLQMNSLRAEDTALYYCVKSYGSGSFYNAFDSWGQGTLVTVSS VL: DIQMTQSPSTLSASVGDRVTITCRASQSISSWLAWYQQKPGKAPKFLIYKASKLDRGTPSRFSGSGSGTEFTLTISSLQPDDFATYYCLEYSSYIRTFGQGTKVEIK
1110	–	–	one-armed (OA) mAb11-1360 (antibody, V domains shown) VH: EVQLVESGGGLVQPGRSLKLSCAASGFTFDDYAMHWVRQVPGKGLEWVSGISWRGDIGGYVDSVKGRFTISRDNAKNSLYLQLNSLRAEDTALYYCVKSYGSGSFYNAFDSWGQGTLVTVSS VL: DIQMTQSPSTLSASVGDRVTITCRASQSISSWLAWYQQKPGKAPKLLIYKASRLERGTPSRFSGSGSGTEFSLTISSLQPDDFATYYCLEYSSYIRTFGQGTKVEIK
5790	–	–	one-armed (OA) mAb11-1389 (antibody, V domains shown) VH: EVQLVESGGGLVQPGRSLKLSCAASGFTFHDYAMHWVRQAPGKGLEWVSGISWKGDIGGYVDSVKGRFTISRDNAKNSLYLQMNSLRAEDTALYYCAKSYGSGSFYNAFDSWGQGTLVTVSS VL: DIQMTQSPSTLSASAGDRVTITCRASQSISSWLAWYQQKPGKAPKFLIYKASRLDRGTPSRFSGSGSGTEFSLTISSLQPDDFATYYCLEYSSYIRTFGQGTKVEIK
–	9010	–	one-armed (OA) mAb11-1499 (antibody, V domains shown) VH: EVQLVESGGGLVQPGRSLRLSCAASGFTFHDYAMHWVRQVPGKGLEWVSGISWRGDIGGYVKSVKGRFTISRDNAKNSLYLQMNSLRAEDTALYYCVKSYGSGSFYNAFDSWGQGTLVTVSS VL: DIQMTQSPSTLSASVGDRVTITCRASQSISSWLAWYQQKPGKAPKFLIYKASKLDRGTPSRFSGSGSGTEFTLTISSLQPDDFATYYCLEYSSYIRTFGQGTKVEIK
